According to patent publication US20140127174A1 (ZEALAND PHARMA A S, published 2014):

Experiments:
[1] = target: human glucagon-like peptide 1 receptor (GLP-1-R) (human, UniProt P43220 24-463); assay: cell-based or functional assay
[2] = target: human glucagon receptor (Glucagon-R) (human, UniProt P47871 26-477); assay: cell-based or functional assay

Chain of human glucagon-like peptide 1 receptor (GLP-1-R) (P43220 24-463): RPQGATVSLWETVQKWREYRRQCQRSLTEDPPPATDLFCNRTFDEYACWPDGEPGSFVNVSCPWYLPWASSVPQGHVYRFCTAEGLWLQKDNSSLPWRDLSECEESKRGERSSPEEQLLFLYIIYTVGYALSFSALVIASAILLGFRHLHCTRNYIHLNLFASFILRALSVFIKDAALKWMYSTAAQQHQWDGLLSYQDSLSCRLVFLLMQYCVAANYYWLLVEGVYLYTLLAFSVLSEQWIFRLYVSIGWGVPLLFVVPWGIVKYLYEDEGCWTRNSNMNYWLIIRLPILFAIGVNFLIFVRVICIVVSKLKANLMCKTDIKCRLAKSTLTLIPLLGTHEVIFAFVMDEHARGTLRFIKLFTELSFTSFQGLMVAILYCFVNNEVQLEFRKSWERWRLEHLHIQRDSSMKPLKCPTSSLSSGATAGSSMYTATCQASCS

H-HSQGTFTSDYSLYLDSRRAKDFIEWLERA-NH2 (not fully specified) [L006-0050 (SEQ ID NO: 12)]
EC50 of cAMP formation in HEK293 cells expressing human GLP-1-R (corrected to a purity of 50%) [1]: 170 pM | EC50 of cAMP formation in HEK293 cells expressing human Glucagon-R (corrected to a purity of 50%) [2]: 100 pM
